Legend:
[1] = target: CDK4-cyclin D2 holoenzyme complex (Mus musculus (Mouse)) (UniProt P30285)
[2] = target: CDK6-cyclin D2 holoenzyme complex (Mus musculus (Mouse)) (UniProt P30280)

Row | pRb kinase activity (fold less efficient) [1] | pRb kinase activity (fold less efficient) [2] | Substance
1 | > 30 | > 30 | GST-ANK6 (GST fused to the MAD3 subdomain containing only the five ankyrin repeats, amino acids 73-242) (from UniProt P08515)
2 | > 30 | > 30 | GST-MAD3 (GST fused to mouse IkB (MAD3)) (from UniProt Q9Z1E3)

Reference: patent US6033847
